# Measurements taken from patent publication US20120258482A1, “PCNA […]” (INDIANA UNIVERSITY RESEARCH AND TECHNOLOGY CORPORATION, priority 2009, published 2012).
# B1: Flag-Arm1: Flag-tagged C6orf211 protein fusion, PCNA-dependent carboxyl methyltransferase (SEQ ID NO: 33) (protein, listed as Homo sapiens)
# chain: MAVVPASLSGQDVGSFAYLTIKDRIPQILTKVIDTLHRHKSEFFEKHGEEGVEAEKKAISLLSKLRNELQTDKPFIPLVEKFVDTDIWNQYLEYQQSLLNESDGKSRWFYSPWLLVECYMYRRIHEAIIQSPPIDYFDVFKESKEQNFYGSQESIIALCTHLQQLIRTIEDLDENQLKDEFFKLLQISLWGNKCDLSLSGGESSSQNTNVLNSLEDLKPFILLNDMEHLWSLLSNCKKTREKASATRVYIVLDNSGFELVTDLILADFLLSSELATEVHFYGKTIPWFVSDTTIHDFNWLIEQVKHSNHKWMSKCGADWEEYIKMGKWVYHNHIFWTLPHEYCAMPQVAPDLYAELQKAHLILFKGDLNYRKLTGDRKWEFSVPFHQALNGFHPAPLCTIRTLKAEIQVGLQPGQGEQLLASEPSWWTTGKYGIFQYDGPL
# modifications: Flag tag
# System: purified recombinant PCNA
# Assay: Vapor diffusion assay of anti-Flag immunoprecipitates with purified recombinant PCNA
# Type: biochemical, human
# Conditions: anti-Flag immunoprecipitate from SK-Br-3 cells, 2 μg 6× His-PCNA
# Experimental: Vapor diffusion assay. The assay was performed basically as previously described (Murray, E. D., Jr. & Clarke, S. J Biol Chem 259, 10722-10732 (1984). MCF7 breast cancer cell extracts were assayed 1-2 h in the presence of [^3H-methyl]-SAM (NEN). Following incubation, extracts were equilibrated with 100 mM NaOH with 2% SDS and spotted onto filter paper folded into an accordion pleat and placed into the neck of a vial above scintillation fluid. ^3H-methanol present in the scintillation fluid was measured the following day (See FIG. 1).
# Protein expression and purification. HiTrap phenyl Sepharose HP and Superdex S200 columns were purchased from GE Biosciences. Chromatography was performed using a Biologic DuoFlow (BioRad). […] The CBP tag lacks both aspartic and glutamic acids. […] (Podust et al., Biochemistry 34, 8869-8875 (1995). A eukaryotic expression vector expressing a Flag-Arm1 fusion was transfected into and transiently expressed in SK-Br-3 cells with Fugene 6 (Roche). Anti-Flag immunoprecipitations were performed with Anti-Flag M2 Affintiy Gel (Sigma) and detected by Western analysis using anti-DDK antibodies (Origene). PIP-affinity beads were generated by covalently coupling synthetic p21 PIP peptide (Anaspec) to CH Sepharose (GE Biosciences). […]
molecule,measurement,value
B1,PCNA-dependent carboxyl methyltransferase activity,Significant levels
